These results are taken from patent US20220048996A1 (F STAR BETA, published 2022).

For assay [1], the target named is T1, hFcγR2a (R&D Systems 1330-CD-050/CF) (human, UniProt P12318 36-218, limits assumed).
T1 construct: Bought; also called FcγRIIa
T1 sequence (looked up): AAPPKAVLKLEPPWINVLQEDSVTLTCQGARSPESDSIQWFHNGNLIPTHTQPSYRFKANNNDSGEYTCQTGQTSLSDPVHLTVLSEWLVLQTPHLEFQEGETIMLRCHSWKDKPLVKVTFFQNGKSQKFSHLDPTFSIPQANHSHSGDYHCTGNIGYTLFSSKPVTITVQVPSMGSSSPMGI
Description: SPR, antibody 100 nM on CD137-his chip co-injected with FcγR 500 nM. As for the experimental part:
(§1) Binding was tested on a Biacore 3000 instrument (GE Healthcare). Human OX40 (BPS Bioscience cat no 71310) and human CD137 (produced in house) biotinylated his-tagged antigens were coated onto an SA chip (GE Healthcare cat no BR100398) at 2 μM concentration. Human OX40 and human CD137 were coated on separate flow cells, while another flow cell was left blank for background subtraction. Regeneration conditions were determined to be 12 μl aqueous 10 mM glycine-HCl at pH2.0 at 20 μl/min flow rate. Antibodies (see Table 8) and human FcγRs (see Table 8) were diluted to 100 nM (antibodies) or 500 nM (human FcγRs) in HBS-P (0.01 M HEPES pH 7.4, 0.15 M NaCl, 0.005% v/v Surfactant P20, GE Healthcare, BR-1003-68) and co-injected at 20 μl/min flow rate and the dissociation was followed for 5 min.
(§2) Data analysis was performed with BiaEvaluation software version 3.2 RC1 by referencing against the blank flow cell and aligning the curves after the association of the antibody. Values for binding response at the end of the association phase were generated by subtracting the […] to normalize the effect of the antibody binding to the OX40 and CD137 receptors.
On the technique in general: In SPR one partner is held on a chip, and binding of the other changes the refractive index at the surface.

Assay [2] concerns the target T2, hFcγR1 (R&D Systems 1257-FC-050/CF) (human, UniProt P12314 16-288).
T2 construct: Bought; also called FcγRI
Described as above. As for the experimental part:
as §1, §2

The target of assay [3] is T3, hFcγR2b (R&D Systems 1460-CD-050/CF) (human, UniProt P31994 46-217, limits assumed).
T3 construct: Bought; also called FcγRIIb
T3 sequence (looked up): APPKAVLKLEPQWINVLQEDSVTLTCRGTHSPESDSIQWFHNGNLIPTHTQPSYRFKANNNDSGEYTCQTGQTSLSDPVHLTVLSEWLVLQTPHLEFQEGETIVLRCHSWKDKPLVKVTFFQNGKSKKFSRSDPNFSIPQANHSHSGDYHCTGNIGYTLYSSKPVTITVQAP
Described as above. As for the experimental part: as §1, §2

For assay [4], the target named is T4, hFcγR3a (R&D Systems 4325-FC-050/CF) (human, UniProt P08637 17-208).
T4 construct: Bought; In the ADCC bioassay FcγRIIIa stood on engineered Jurkat cells; also called FcγRIIIa
T4 sequence (P08637 17-208 limits assumed): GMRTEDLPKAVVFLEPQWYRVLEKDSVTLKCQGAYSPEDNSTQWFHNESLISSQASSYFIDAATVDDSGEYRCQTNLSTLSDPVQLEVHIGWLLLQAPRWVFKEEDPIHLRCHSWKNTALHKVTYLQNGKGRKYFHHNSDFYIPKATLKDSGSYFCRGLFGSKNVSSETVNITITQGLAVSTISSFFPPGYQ
Described as above. As for the experimental part:
as §1, §2

Assay [5] deals with T5, human OX40 expressed on DO11.10 cells (DO11.10-hOX40) (human, UniProt P43489 29-277).
T5 sequence: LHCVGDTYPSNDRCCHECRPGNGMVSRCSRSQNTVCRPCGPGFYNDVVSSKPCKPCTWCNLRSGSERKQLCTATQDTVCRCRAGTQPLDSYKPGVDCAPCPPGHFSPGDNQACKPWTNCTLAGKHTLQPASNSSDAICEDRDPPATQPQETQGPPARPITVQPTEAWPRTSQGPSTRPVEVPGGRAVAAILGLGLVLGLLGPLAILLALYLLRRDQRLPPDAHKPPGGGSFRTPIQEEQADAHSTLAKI
Description: cell-based or functional assay.

A further assay concerns the target T6, cCD137-mFc-Avi (cynomolgus monkey).
T6 construct: 139 used; also called cyno CD137-mFc-Avi; recombinant cyno CD137
T6 chain: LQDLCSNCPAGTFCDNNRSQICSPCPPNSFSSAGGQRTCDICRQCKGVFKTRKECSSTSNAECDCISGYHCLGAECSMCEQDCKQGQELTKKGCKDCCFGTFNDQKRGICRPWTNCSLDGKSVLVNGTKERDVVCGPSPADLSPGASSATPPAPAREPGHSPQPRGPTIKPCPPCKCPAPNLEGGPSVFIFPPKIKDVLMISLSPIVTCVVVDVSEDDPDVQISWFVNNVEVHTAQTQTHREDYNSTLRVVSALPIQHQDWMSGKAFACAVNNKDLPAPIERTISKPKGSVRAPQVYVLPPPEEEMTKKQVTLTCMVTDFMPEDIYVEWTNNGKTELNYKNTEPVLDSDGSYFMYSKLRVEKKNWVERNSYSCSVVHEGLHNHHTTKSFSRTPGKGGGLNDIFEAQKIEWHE
Description: SPR, antibody captured via anti-human Fc, dimeric antigen flowed, 1:1 fit. As for the experimental part: For CD137 affinity determination, a Biacore CM5 chip (GE Healthcare) was coated with anti-human Fc using a Human Antibody Capture Kit (GE Healthcare) according to manufacturer's conditions, to a surface density of approximately 4000 RU. […] Human or cynomolgus CD137 (hCD137-mFc-Avi or cCD137-mFc-Avi) was flowed over at a range of concentrations in a three-fold dilution series starting at 200 nM, at a flow rate of 70 μl/min. The association time was 2 min and the dissociation time was 8 min. Running buffer was HBS-EP (GE Healthcare BR100188). Flow cells were regenerated by injecting 3M magnesium chloride at a flow rate of 30 μl/min for 30 seconds.
The binding kinetics were fit with a 1:1 Langmuir model to generate binding association (kₐ) and dissociation (kd) rates. Equilibrium binding constants (KD) were calculated by dividing the dissociation rate by the association rate for each sample. Data analysis was performed with BiaEvaluation software version 3.2.

T2 sequence (P12314 16-288 limits assumed): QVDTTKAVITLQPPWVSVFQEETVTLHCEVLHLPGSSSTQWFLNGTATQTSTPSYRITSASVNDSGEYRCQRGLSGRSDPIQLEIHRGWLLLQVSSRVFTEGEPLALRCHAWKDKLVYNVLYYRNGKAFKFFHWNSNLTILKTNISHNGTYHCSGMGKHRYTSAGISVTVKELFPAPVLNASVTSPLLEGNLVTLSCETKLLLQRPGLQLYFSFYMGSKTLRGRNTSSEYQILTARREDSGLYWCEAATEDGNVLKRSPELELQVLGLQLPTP

B1: FS20-22-49AA/FS30-10-16 (bispecific antibody, human IgG1, kappa, L234A L235A)
heavy: EVQLLESGGGLVQPGGSLRLSCAASGFTFSSYDMSWVRQAPGKGLEWVSDIDPTGSKTDYADSVKGRFTISRDNSKNTLYLQMNSLRAEDTAVYYCARDLLVYGFDYWGQGTLVTVSSASTKGPSVFPLAPSSKSTSGGTAALGCLVKDYFPEPVTVSWNSGALTSGVHTFPAVLQSSGLYSLSSVVTVPSSSLGTQTYICNVNHKPSNTKVDKKVEPKSCDKTHTCPPCPAPEAAGGPSVFLFPPKPKDTLMISRTPEVTCVVVDVSHEDPEVKFNWYVDGVEVHNAKTKPREEQYNSTYRVVSVLTVLHQDWLNGKEYKCKVSNKALPAPIEKTISKAKGQPREPQVYTLPPSRDEYWDQEVSLTCLVKGFYPSDIAVEWESNGDEQFAYKTTPPVLDSDGSFFLYSKLTVDQYRWNPADYFSCSVMHEALHNHYTQKSLSLSPG
light: EIVLTQSPGTLSLSPGERATLSCRASQSVSSSYLAWYQQKPGQAPRLLIYGASSRATGIPDRFSGSGSGTDFTLTISRLEPEDFAVYYCQQSYSYPVTFGQGTKVEIKRTVAAPSVFIFPPSDEQLKSGTASVVCLLNNFYPREAKVQWKVDNALQSGNSQESVTEQDSKDSTYSLSSTLTLSKADYEKHKVYACEVTHQGLSSPVTKSFNRGEC
notes: IgG1 with LALA; also called OX40/CD137 mAb^2; copies: 2 + 2
Take B1: the “binding response at end of association phase of FcγR” value in assay [1] turned out to be 10.9 RU. Besides, in assay [2], the “binding response at end of association phase of FcγR” value was 246 RU and the “decrease of binding response at end of dissociation phase of FcγR” value was determined as 367 RU. Also, in assay [3], the “binding response at end of association phase of FcγR” value was found to be 9 RU. For the same molecule, in assay [4], the “binding response at end of association phase of FcγR” value is 17.3 RU. Further, in assay [5], the “SEA assay (PBMC), hIL-2 max response, crosslinked” value stood at 33800 pg/mL; the “SEA assay (PBMC), hIL-2 max response, no crosslinker” value is 35100 pg/mL; the “SEA assay (PBMC), hIL-2 release EC50, crosslinked” value stood at 0.1 nM; the “SEA assay (PBMC), hIL-2 release EC50, no crosslinker” value worked out at 0.14 nM. The Kd (in general, the equilibrium constant for the complex coming apart) in the assay with cCD137-mFc-Avi was found to be 0.15 nM.
